From patent US20190382481A1 (Janssen / Centocor, published 2019)
Numbering of substitutions follows the chain as printed.

Experiments:
Experiment in all cases: cell-based or functional assay
cyno CD33 = cyno CD33 (cynomolgus monkey)
human CD33 [1] = molecular target: T1, human CD33 (human, UniProt P20138 18-364)
human CD33 [2] = molecular target: T1, human CD33; remark: listed apart in the source
human CD33 [3] = molecular target: T1, human CD33; remark: listed apart in the source
human CD33 [4] = molecular target: T1, human CD33; remark: listed apart in the source
human CD33 [5] = molecular target: T1, human CD33; remark: listed apart in the source
human CD33 [6] = molecular target: T1, human CD33; remark: listed apart in the source

Sequence of cyno CD33 (cynomolgus monkey) (chain, as listed by the source limits assumed): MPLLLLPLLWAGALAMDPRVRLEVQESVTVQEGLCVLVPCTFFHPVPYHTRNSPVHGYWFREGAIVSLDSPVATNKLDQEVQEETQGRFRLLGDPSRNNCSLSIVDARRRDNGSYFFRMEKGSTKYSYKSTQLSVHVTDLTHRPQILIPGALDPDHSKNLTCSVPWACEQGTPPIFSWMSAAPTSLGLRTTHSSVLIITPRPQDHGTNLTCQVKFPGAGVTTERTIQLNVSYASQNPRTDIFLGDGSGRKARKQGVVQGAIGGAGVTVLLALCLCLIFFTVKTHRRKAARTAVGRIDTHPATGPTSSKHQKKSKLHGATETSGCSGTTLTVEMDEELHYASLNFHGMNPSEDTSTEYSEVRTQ
T1 sequence (P20138 18-364 limits assumed): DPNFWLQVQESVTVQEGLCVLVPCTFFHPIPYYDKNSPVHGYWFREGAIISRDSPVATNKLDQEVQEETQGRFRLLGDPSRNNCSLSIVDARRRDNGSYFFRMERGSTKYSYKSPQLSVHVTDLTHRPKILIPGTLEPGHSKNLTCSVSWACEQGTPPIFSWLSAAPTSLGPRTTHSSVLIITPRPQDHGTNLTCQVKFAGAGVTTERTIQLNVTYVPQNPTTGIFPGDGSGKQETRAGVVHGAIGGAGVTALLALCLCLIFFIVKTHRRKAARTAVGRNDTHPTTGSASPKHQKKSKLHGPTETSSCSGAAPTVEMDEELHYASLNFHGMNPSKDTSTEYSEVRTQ

B1: C3CB189 (bispecific antibody, human IgG4 S228P, kappa, lambda, F234A L235A)
heavy 1: not shown
light 1: not shown
heavy 2: QVQLQQSGPRLVRPSQTLSLTCAISGDSVFNNNAAWSWIRQSPSRGLEWLGRTYYRSKWLYDYAVSVKSRITVNPDTSRNQFTLQLNSVTPEDTALYYCARGYSSSFDYWGQGTLVTVSSASTKGPSVFPLAPCSRSTSESTAALGCLVKDYFPEPVTVSWNSGALTSGVHTFPAVLQSSGLYSLSSVVTVPSSSLGTKTYTCNVDHKPSNTKVDKRVESKYGPPCPPCPAPEAAGGPSVFLFPPKPKDTLMISRTPEVTCVVVDVSQEDPEVQFNWYVDGVEVHNAKTKPREEQFNSTYRVVSVLTVLHQDWLNGKEYKCKVSNKGLPSSIEKTISKAKGQPREPQVYTLPPSQEEMTKNQVSLTCLVKGFYPSDIAVEWESNGQPENNYKTTPPVLDSDGSFLLYSKLTVDKSRWQEGNVFSCSVMHEALHNHYTQKSLSLSLGK
light 2: QSALTQPASVSGSPGQSITISCTGTSSNIGTYKFVSWYQQHPDKAPKVLLYEVSKRPSGVSSRFSGSKSGNTASLTISGLQAEDQADYHCVSYAGSGTLLFGGGTKLTVLGQPKAAPSVTLFPPSSEELQANKATLVCLISDFYPGAVTVAWKADSSPVKAGVETTTPSKQSNNKYAASSYLSLTPEQWKSHRSYSCQVTHEGSTVEKTVAPTECS
- CD33^+ CD14^+ Killing EC50 (nM), ex vivo cynomolgus whole blood (cyno CD33): 3.6 nM
- T cell activation EC50 (nM), ex vivo cynomolgus whole blood (cyno CD33): 0.02 nM
- Primary AML Cell Killing EC50 (nM), ex vivo AML patient whole blood (human CD33 [1]): 0.578 nM
- CD33^+ CD14^+ Killing EC50 (nM), ex vivo human whole blood (human CD33 [2]): 1.16 nM
- MOLM13 Killing EC50 (nM), ex vivo human whole blood (human CD33 [2]): 0.168 nM
- IFN-gamma release, Median EC50 (human CD33 [3]): 0.16 nM
- IL-1beta release, Median EC50 (human CD33 [3]): 0.045 nM
- IL-2 release, Median EC50 (human CD33 [3]): 0.346 nM
- IL-4 release, Median EC50 (human CD33 [3]): 0.078 nM
- IL-8 release, Median EC50 (human CD33 [3]): 0.042 nM
- IL-10 release, Median EC50 (human CD33 [3]): 0.123 nM
- IL-13 release, Median EC50 (human CD33 [3]): 0.034 nM
- TNF-alpha release, Median EC50 (human CD33 [3]): 0.208 nM

B2: C3CB103 (bispecific antibody, human IgG4 S228P, lambda, F234A L235A)
heavy 1: not shown
light 1: SYELTQPPSVSVSPGQTASITCSGDKLGDKYACWYQQKPGQSPVLVIYQDGKRPSGIPERFSGSNFGNKATLTISGTQAMDEADYYCQAWDRNTVVFGGGTKLTVLGQPKAAPSVTLFPPSSEELQANKATLVCLISDFYPGAVTVAWKADSSPVKAGVETTTPSKQSNNKYAASSYLSLTPEQWKSHRSYSCQVTHEGSTVEKTVAPTECS
heavy 2: B1 heavy 2
light 2: B1 light 2
- Primary AML Cell Killing EC50 (nM), ex vivo AML patient whole blood (human CD33 [1]): 4.19 nM

B3: C3CB102 (bispecific antibody, human IgG4 S228P, lambda, F234A L235A)
heavy 1: not shown
light 1: B2 light 1 with D25N, D29A, Y31F, C33S, G51N, F66S, K69T, M80V, R92S, N93S
heavy 2: B1 heavy 2
light 2: B1 light 2
- Primary AML Cell Killing EC50 (nM), ex vivo AML patient whole blood (human CD33 [1]): 4.97 nM

B4: C33B48.CLF (antibody, human IgG1, lambda)
heavy: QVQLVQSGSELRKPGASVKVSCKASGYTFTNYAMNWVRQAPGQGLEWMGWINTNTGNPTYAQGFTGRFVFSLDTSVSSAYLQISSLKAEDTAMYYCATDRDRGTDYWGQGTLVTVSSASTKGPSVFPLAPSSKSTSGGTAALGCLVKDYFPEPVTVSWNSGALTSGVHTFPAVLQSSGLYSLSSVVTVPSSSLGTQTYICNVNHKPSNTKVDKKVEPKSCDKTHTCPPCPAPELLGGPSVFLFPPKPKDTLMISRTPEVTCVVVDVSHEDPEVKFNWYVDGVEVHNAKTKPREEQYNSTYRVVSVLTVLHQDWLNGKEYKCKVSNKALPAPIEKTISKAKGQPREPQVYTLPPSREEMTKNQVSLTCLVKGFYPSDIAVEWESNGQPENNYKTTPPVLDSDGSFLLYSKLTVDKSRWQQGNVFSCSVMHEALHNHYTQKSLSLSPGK
light: QSALTQPASVSGSPGQSITISCTGTSSDVGDYNYVSWYQQHPGKVPKLMIYDVSNRPSGVSNRFSGSMSGNTASLTISGLQAEDEADYYCSSYSSSSALEVFGGGTKLTVLGQPKAAPSVTLFPPSSEELQANKATLVCLISDFYPGAVTVAWKADSSPVKAGVETTTPSKQSNNKYAASSYLSLTPEQWKSHRSYSCQVTHEGSTVEKTVAPTECS
modifications: IgG1 low fucose Fc glycan
- EC50 ADCC (nM), MOLM-13 target cells, human NK effector cells (human CD33 [4]): 0.023 nM
- EC50 ADCC (nM), MV4-11 target cells, human NK effector cells (human CD33 [4]): 0.113 nM

B5: C3CB97 (bispecific antibody, human IgG4 S228P, lambda, F234A L235A)
heavy 1: not shown
light 1: B4 light
heavy 2: B1 heavy 2
light 2: B1 light 2
- Primary AML Cell Killing EC50 (nM), ex vivo AML patient whole blood (human CD33 [1]): ~0.232 nM

B6: C3CB7 (bispecific antibody, human IgG4 S228P, lambda, F234A L235A)
heavy 1: not shown
light 1: B4 light
heavy 2: EVQLVESGGGLVQPGGSLRLSCAASGFTFNTYAMNWVRQAPGKGLEWVARIRSKYNNYATYYAASVKGRFTISRDDSKNSLYLQMNSLKTEDTAVYYCARHGNFGNSYVSWFAYWGQGTLVTVSSASTKGPSVFPLAPCSRSTSESTAALGCLVKDYFPEPVTVSWNSGALTSGVHTFPAVLQSSGLYSLSSVVTVPSSSLGTKTYTCNVDHKPSNTKVDKRVESKYGPPCPPCPAPEAAGGPSVFLFPPKPKDTLMISRTPEVTCVVVDVSQEDPEVQFNWYVDGVEVHNAKTKPREEQFNSTYRVVSVLTVLHQDWLNGKEYKCKVSNKGLPSSIEKTISKAKGQPREPQVYTLPPSQEEMTKNQVSLTCLVKGFYPSDIAVEWESNGQPENNYKTTPPVLDSDGSFLLYSKLTVDKSRWQEGNVFSCSVMHEALHNHYTQKSLSLSLGK
light 2: QTVVTQEPSLTVSPGGTVTLTCRSSTGAVTTSNYANWVQQKPGQAPRGLIGGTNKRAPGTPARFSGSLLGGKAALTLSGVQPEDEAEYYCALWYSNLWVFGGGTKLTVLGQPKAAPSVTLFPPSSEELQANKATLVCLISDFYPGAVTVAWKADSSPVKAGVETTTPSKQSNNKYAASSYLSLTPEQWKSHRSYSCQVTHEGSTVEKTVAPTECS
- Primary AML Cell Killing EC50 (nM), ex vivo AML patient whole blood (human CD33 [1]): 0.332 nM
- Cytotoxicity EC50 (nM), T-cell mediated cytotoxicity of MOLM-13 (human CD33 [5]): 0.0213 nM

B7: C3CB12 (bispecific antibody, human IgG4 S228P, lambda, F234A L235A)
heavy 1: not shown
light 1: B2 light 1 with D25N, D29A, Y31F, C33S, G51N, F66S, K69T, M80V, R92S, N93S
heavy 2: B6 heavy 2
light 2: B6 light 2
- Primary AML Cell Killing EC50 (nM), ex vivo AML patient whole blood (human CD33 [1]): 2.63 nM
- Cytotoxicity EC50 (nM), T-cell mediated cytotoxicity of MOLM-13 (human CD33 [5]): 0.268 nM

B8: C3CB88 (bispecific antibody, human IgG4 S228P, kappa, lambda, F234A L235A)
heavy 1: not shown
light 1: not shown
heavy 2: B6 heavy 2
light 2: B6 light 2
- CD33^+ CD14^+ Killing EC50 (nM), ex vivo cynomolgus whole blood (cyno CD33): 0.89 nM
- T cell activation EC50 (nM), ex vivo cynomolgus whole blood (cyno CD33): 0.02 nM
- Primary AML Cell Killing EC50 (nM), ex vivo AML patient whole blood (human CD33 [1]): 0.672 nM
- CD33^+ CD14^+ Killing EC50 (nM), ex vivo human whole blood (human CD33 [2]): 0.506 nM
- MOLM13 Killing EC50 (nM), ex vivo human whole blood (human CD33 [2]): 0.671 nM
- Cytotoxicity EC50 (nM), T-cell mediated cytotoxicity of MOLM-13 (human CD33 [5]): 0.11 nM

B9: C33B782 (antibody, human IgG4 S228P, lambda, F234A L235A)
heavy: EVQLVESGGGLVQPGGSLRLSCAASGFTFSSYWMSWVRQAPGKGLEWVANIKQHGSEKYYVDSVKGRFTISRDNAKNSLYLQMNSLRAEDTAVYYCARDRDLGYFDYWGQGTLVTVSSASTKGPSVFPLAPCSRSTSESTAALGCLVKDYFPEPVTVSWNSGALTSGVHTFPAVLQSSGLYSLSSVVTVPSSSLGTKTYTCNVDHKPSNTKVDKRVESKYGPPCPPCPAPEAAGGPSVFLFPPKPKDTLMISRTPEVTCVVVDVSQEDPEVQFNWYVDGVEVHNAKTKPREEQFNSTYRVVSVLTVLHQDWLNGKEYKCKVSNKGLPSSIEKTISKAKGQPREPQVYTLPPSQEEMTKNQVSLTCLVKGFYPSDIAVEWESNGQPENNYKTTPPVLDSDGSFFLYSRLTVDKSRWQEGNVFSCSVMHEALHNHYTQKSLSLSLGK
light: B2 light 1 with D25N, D29A, Y31F, C33S, G51N, F66S, K69T, M80V, R92S, N93S
- EC50 (nM), CD33 internalization assay (Protein A-MMAF cell viability, MOLM13) (human CD33 [6]): 0.88 nM

B10: C3CB11 (bispecific antibody, human IgG4 S228P, lambda, F234A L235A)
heavy 1: not shown
light 1: B2 light 1
heavy 2: B6 heavy 2
light 2: B6 light 2
- Primary AML Cell Killing EC50 (nM), ex vivo AML patient whole blood (human CD33 [1]): 3.96 nM

B11: C33B912.CLF (antibody, human IgG1, kappa, V domains shown)
VH: EVQLVESGGGLVQPGRSLRLSCAASGFTFDDYAMHWVRQAPGKGLEWVSGIGWSGGSIVYADSVKGRFKISRDNAKNSLYLQMNSLRAEDTALYYCAKDSPYGDFFDYWGQGTLVTVSS
VL: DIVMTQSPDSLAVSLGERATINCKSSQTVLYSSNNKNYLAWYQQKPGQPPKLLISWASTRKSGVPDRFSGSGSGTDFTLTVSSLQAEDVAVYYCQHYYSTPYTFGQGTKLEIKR
modifications: IgG1 low fucose Fc glycan
- EC50 ADCC (nM), MOLM-13 target cells, human NK effector cells (human CD33 [4]): 0.292 nM
- EC50 ADCC (nM), MV4-11 target cells, human NK effector cells (human CD33 [4]): 2.01 nM
